Measurements taken from article PMC9072312, “Candida albicans evades NK cell elimination via binding of Agglutinin-Like Sequence proteins to the checkpoint receptor TIGIT” (Nature Communications, 2022).

Molecular target: T1, PVR-Ig (extracellular portion of human PVR fused to the Fc domain of human IgG1) (human, UniProt P15151 21-343)
T1 construct: PVR (poliovirus receptor), human ligand of TIGIT, extracellular portion; source: HEK293T, transfected (pIRESpuro3), secreted, purified (HiTrap Protein G HP)
T1 sequence: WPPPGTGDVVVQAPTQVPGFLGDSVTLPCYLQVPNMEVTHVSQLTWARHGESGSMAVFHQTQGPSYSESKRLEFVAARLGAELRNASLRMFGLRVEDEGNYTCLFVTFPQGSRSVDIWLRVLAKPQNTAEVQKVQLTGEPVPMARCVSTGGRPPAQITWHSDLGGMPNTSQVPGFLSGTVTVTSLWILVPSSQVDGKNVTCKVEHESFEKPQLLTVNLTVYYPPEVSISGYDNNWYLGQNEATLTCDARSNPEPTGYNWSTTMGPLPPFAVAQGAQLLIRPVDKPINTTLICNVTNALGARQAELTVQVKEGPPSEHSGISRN
Assay: MST; RED-NHS labeled TIGIT-Ig at constant level, unlabeled Ig-fusion proteins serially diluted in 1x PBS; Monolith NT.115, 20% MST power, 95% LED power, standard capillaries, 25 °C
Conditions: both partners purified

B1: TIGIT-Ig (extracellular ligand-binding domain of human TIGIT fused to the Fc domain of human IgG1) (Fc fusion)
chain: MMTGTIETTGNISAEKGGSIILQCHLSSTTAQVTQVNWEQQDQLLAICNADLGWHISPSFKDRVAPGPGLGLTLQSLTVNDTGEYFCIYHTYPDGTYTGRIFLEVLESSVAEHGARFQIP
modifications: fluorescently labeled with the Monolith NT Protein Labeling Kit RED-NHS
notes: also called human TIGIT-Ig; T cell immunoreceptor with Ig and ITIM domains; source: HEK293T, transfected (pIRESpuro3), secreted, purified (HiTrap Protein G HP)
  binding result: binds
